Residue numbers refer to the chain shown, from its start. Names and notes keep the numbering of the source.

Data set [1] deals with T1, miniSOG (Arabidopsis thaliana, UniProt P93025, I387M/N390S/S394T/S409G/C426G/A437D/T438I/Q440S/K441G/I442A/R443T/F470L).
T1 construct: gene PHOT2; engineered LOV domain of phototropin 2, 106 residues, several mutations abolishing flavin-cysteine adduct; recombinant, coexpressed with ApbE
As to the kind of experiment: X-ray crystal structure […] Å; MS. Format: binding. The conditions noted are these: miniSOG-F2; covalent; phosphoester to OG1 of Thr57; attached in vivo by ApbE.

Data set [2] addresses T2, miniSOG (Arabidopsis thaliana, UniProt P93025, I387M/N390S/S394T/S409G/C426G/F470L, form not given).
T2 construct: gene PHOT2; engineered LOV domain of phototropin 2, 106 residues, several mutations abolishing flavin-cysteine adduct; recombinant, coexpressed with ApbE
As to the kind of experiment: SDS-PAGE and MS. The conditions noted are these: covalent; attached in vivo by ApbE. It is filed as binding.

The target of a further data set is T3, PpSB1-LOV (Pseudomonas putida, UniProt Q88E39).
T3 construct: gene PP_4629; dimer
T3 sequence (Q88E39 1-142): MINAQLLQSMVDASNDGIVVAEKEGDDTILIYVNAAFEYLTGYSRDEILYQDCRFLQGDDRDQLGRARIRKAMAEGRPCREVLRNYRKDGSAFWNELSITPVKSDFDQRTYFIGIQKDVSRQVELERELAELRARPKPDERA
As to the kind of experiment: absorbance of purified holoprotein; SDS-PAGE fluorescence; ESI-MS. The note with it: dissociable, noncovalent FMN. Format: binding.

Substrate in the data set “steady-state kinetics”: NC(=O)N/N=C/c1ccc([N+](=O)[O-])o1
As to the kind of experiment: steady-state kinetics. It is filed as biochemical, Bacillus tequilensis. The text has this:
steady-state kinetics on BtNR

Setting [3] is: BtNR-F3, covalent FMN 100% (cofactor).

Consider `Cc1cc2nc3c(=O)[nH]c(=O)nc-3n(C[C@H](O)[C@H](O)[C@H](O)COP(=O)(O)O)c2cc1C` [FMN], for which, at miniSOG [1], the “X-ray crystal structure 2.0 Å; MS” value was “the introduced phosphoester bond between OG1 of Thr57 and the phosphate of FMN”. In addition, at miniSOG [2], the “SDS-PAGE and MS” value is “SDS-PAGE and MS analyses revealed that both proteins were fully covalently flavinylated”. In addition, the “absorbance of purified holoprotein; SDS-PAGE fluorescence; ESI-MS” value at PpSB1-LOV is on record as “the wild-type protein did not yield in-gel fluorescence as it contains a dissociable FMN”.

B1: BtNR (Bacillus tequilensis) (protein)
chain: MADIKKQILDAYNFRHATKEFDPNKKVSDSDFEFILETGRLSPSSLGLEPWKFVVVQNPEFREKLREYTWGAQKQLPTASHFVLILARTAKDIKYNADYIKRHLKEVKQMPQDVSEGYISKTEEFQKNDLHLLESDRTLFDWASKQTYIALGNMMTAAAQIGVDSCPIEGFQYDHIHRILEEEGLLENGSFDISVMAAFGYRVRDPRPKTRSAVEDVVKWV
notes: recombinant, coexpressed with ApbE, purified
Turning to B1, in the data set “steady-state kinetics” (dissociable FMN), the Km is 64 ± 11.5 µM, the kcat is 32 ± 2.3 s⁻¹ and the kcat/Km stood at 500000 M⁻¹ s⁻¹.

B2: BtNR (Bacillus tequilensis; A11D/A17T/F14S/H16A/N13L/R15G/Y12G) (protein)
chain: B1 chain with A11D, Y12G, N13L, F14S, R15G, H16A, A17T
notes: as for B1
Consider B2, for which, in the data set “steady-state kinetics” (setting [3]), the Km was 42 ± 6.6 µM, the kcat amounted to 4.5 ± 0.2 s⁻¹ and the kcat/Km turned out to be 110000 M⁻¹ s⁻¹.

Values taken from article PMC10722498, “Fixing Flavins: Hijacking a Flavin Transferase for Equipping Flavoproteins with a Covalent Flavin Cofactor” (Journal of the American Chemical Society, 2023).
